Experiment [1] addresses HLA-A*01:01. As to the kind of experiment: IEDB peptide-MHC binding, purified MHC/competitive/radioactivity; filed as Kd, often an IC50 or EC50 that approximates it; ≥ and ≤ were set here for values at or beyond the usual limits of such assays.
Experiment [2] concerns the target HLA-A*26:01. Described as above.
The target in experiment [3] is HLA-A*23:01. Described as above.
Experiment [4] concerns the target HLA-A*24:02. Described as above.
Experiment [5] concerns the target HLA-A*29:02. The description is as above.
Experiment [6] has as its target HLA-A*30:02. The experiment is described as above.
The target in experiment [7] is HLA-B*15:01. The description is as above.
The target in experiment [8] is HLA-A*32:01. Described as above.
Experiment [9] addresses HLA-A*24:02. As to the kind of experiment: IEDB peptide-MHC binding, purified MHC/competitive/fluorescence; ≥ and ≤ were set here for values at or beyond the usual limits of such assays.
For experiment [10], the target named is HLA-B*15:01. As to the kind of experiment: IEDB peptide-MHC binding, purified MHC/competitive/fluorescence; filed as Kd, often an IC50 or EC50 that approximates it; ≥ and ≤ were set here for values at or beyond the usual limits of such assays.
Experiment [11] concerns the target HLA-A*02:01. The experiment can be described thus: IEDB peptide-MHC binding, purified MHC/competitive/fluorescence; ≥ and ≤ were set here for values at or beyond the usual limits of such assays.
The target in experiment [12] is HLA-A*30:01. As to the kind of experiment: IEDB peptide-MHC binding, purified MHC/competitive/radioactivity; filed as Kd, often an IC50 or EC50 that approximates it; ≥ and ≤ were set here for values at or beyond the usual limits of such assays. Conditions: source organism: Mammarenavirus brazilense.
Setting [13] is: source organism: SARS coronavirus Tor2.
[14] abbreviates: source organism: Vaccinia virus WR.
Where [15] appears, read: source organism: Dengue virus 4 Philippines/H241/1956.
Where [16] appears, read: source organism: Sudan ebolavirus.
Setting [17] is: source organism: Dengue virus 3 Martinique/1243/1999.
The mark [18] stands for this setting: source organism: Bacillus cereus G9241.
Where [19] appears, read: source organism: Zaire ebolavirus.
Setting [20] is: source organism: Mammarenavirus machupoense.
[21] abbreviates: source organism: Lassa virus Josiah.
Setting [22] is: source organism: Mammarenavirus oliverosense.
Setting [23] is: source organism: Mammarenavirus choriomeningitidis.
Where [24] appears, read: source organism: Lymphocytic choriomeningitis virus (strain Armstrong).

These results are taken from the Immune Epitope Database (IEDB).

For ASEFSSLPSY, the Kd in experiment [1] (setting [13]) was 0.0141 µM; in experiment [2] (setting [13]), 11.9 µM; in experiment [3] (setting [13]), at least 70 µM; in [4] (setting [13]), at least 70.3 µM; in [5] (setting [13]) it was 0.102 µM; in experiment [6] (setting [13]), 0.0474 µM.

As for NSIEYILSF, the Kd in experiment [7] (setting [14]) came out at 2.26 µM.

Turning to KTKLTDWDFV, in [8] (setting [15]), the Kd amounted to 15.6 µM.

Consider IVINPFVKF, for which, in experiment [8] (setting [14]), the Kd is 3.26 µM.

On to SNTTGRLIW, for which, in experiment [9] (setting [16]), the IC50 is 3.61 µM.

As for VQKEGVFHTM, in experiment [7] (setting [17]), the Kd came to 0.0242 µM.

Turning to RMNAVSTIL, the Kd in [10] (setting [18]) turned out to be 0.0827 µM.

In the case of EQAFYTRVL, the IC50 in experiment [9] (setting [14]) was determined as 58.8 µM.

For the sequence VISDLFPSF, the Kd in experiment [7] (setting [14]) was 0.21 µM.

FIDTIKSLDY: the Kd in experiment [1] (setting [13]) was 0.458 µM; in experiment [2] (setting [13]), at least 24.9 µM; in [3] (setting [13]), at least 70 µM; in [4] (setting [13]), at least 70.3 µM; in experiment [5] (setting [13]) it was 0.506 µM; in experiment [6] (setting [13]), 4.39 µM.

On to RYQATGFGT, for which the results for the IC50 in experiment [9] (setting [19]) and in [11] (setting [19]) were at least 99.3 µM and at least 226 µM, respectively.

For RLRGEQRKTF, the Kd in experiment [7] (setting [15]) stood at 0.0244 µM.

Consider ESVKTQFNY, for which the Kd is 2.61 µM in experiment [1] (setting [13]); 0.902 µM in experiment [2] (setting [13]); at least 77.8 µM in experiment [3] (setting [13]); at least 77.6 µM in [4] (setting [13]); 0.0312 µM in experiment [5] (setting [13]); 0.505 µM in [6] (setting [13]).

Regarding FHKEGAFFL, the results for the IC50 in experiment [9] (setting [19]) and in experiment [11] (setting [19]) were 0.719 µM and at least 97.8 µM, respectively.

On to EMCDDTVTY, for which the values for the Kd in experiment [2] (setting [17]), in [7] (setting [17]) and in [6] (setting [17]) were 11.2 µM, 0.099 µM and at least 76.9 µM, respectively.

Consider STSQKSIVAY, for which the Kd in [1] (setting [13]) was 0.534 µM; in [2] (setting [13]) it was 0.79 µM; in [3] (setting [13]), at least 70 µM; in [4] (setting [13]) it was at least 70.3 µM; in experiment [5] (setting [13]) it was 0.0445 µM; in [6] (setting [13]) it was 0.0171 µM.

On to LSSGEPHCA, for which the Kd in experiment [1] (setting [20]) is 4.36 µM; in [2] (setting [20]), at least 77.9 µM; in experiment [3] (setting [20]), at least 48 µM; in experiment [4] (setting [20]), at least 77.5 µM; in experiment [5] (setting [20]) it was at least 78.9 µM; in experiment [6] (setting [20]), 4.6 µM.

As for DFFSSHPLR, the IC50 in [9] (setting [19]) was at least 124 µM.

VFRTSTPRVV: the Kd in experiment [1] (setting [21]) is at least 70.4 µM; in experiment [2] (setting [21]), at least 69.7 µM; in experiment [3] (setting [21]), at least 70 µM; in [4] (setting [21]), at least 70.3 µM; in experiment [5] (setting [21]), at least 71.4 µM; in experiment [6] (setting [21]), 6.35 µM.

For the sequence ICLSGEGWPY, the dissociation constant Kd in experiment [3] (setting [22]) was at least 56.8 µM; in experiment [8] (source organism: Mammarenavirus brazilense), at least 21.2 µM; in experiment [12] it was 4.29 µM; in experiment [4] (setting [22]), at least 70.3 µM.

In the case of WCSQTNYQY, the Kd is 0.964 µM in experiment [1] (setting [23]); at least 77.9 µM in experiment [2] (setting [23]); at least 77.7 µM in experiment [3] (setting [23]); at least 77.5 µM in [4] (setting [23]); 0.204 µM in experiment [5] (setting [23]); 0.734 µM in experiment [6] (setting [23]).

LYKLMGHFSW: the Kd is 18.4 µM in experiment [1] (setting [13]); at least 20 µM in experiment [2] (setting [13]); 0.0896 µM in [3] (setting [13]); 0.0831 µM in [4] (setting [13]); 8.09 µM in experiment [5] (setting [13]); 17.1 µM in [6] (setting [13]).

As to SLSLISHVV, the Kd is at least 44.7 µM in [1] (setting [24]); at least 77.9 µM in experiment [2] (setting [24]); at least 77.7 µM in experiment [3] (setting [24]); at least 77.5 µM in experiment [4] (setting [24]); at least 60.4 µM in experiment [5] (setting [24]); 1.44 µM in experiment [6] (setting [24]).

As to AGVLARWGTF, in experiment [8] (setting [17]), the Kd was 8.42 µM.

For the sequence FLFQLNDTI, the values for the IC50 in experiment [9] (setting [16]) and in experiment [11] (setting [16]) were 0.879 µM and 0.257 µM, respectively.

For IGKALHQVF, the Kd in [7] (source organism: Dengue virus 2 Jamaica/1409/1983) is 0.374 µM.

KIKHKGMSF: the Kd in experiment [7] (setting [14]) turned out to be 0.0472 µM.

In experiment [9] (source organism: Vaccinia virus), LYPNVCIFG had an IC50 of 0.0716 µM.

On to ITLHLACGF, for which the Kd in [8] (setting [14]) stood at 0.00141 µM.

Regarding NLSGVNNLE, the IC50 in [9] (setting [19]) is at least 86.4 µM; in experiment [11] (setting [19]), at least 227 µM.

IEVKYSPMY returned a dissociation constant Kd in [10] (setting [18]) of 0.221 µM.

In experiment [10] (source organism: Influenza A virus (A/equine/NewMarket/D64/79(H3N8))), GIFGAIAGF showed a Kd of 0.288 µM.

For the sequence LQHILIEYM, in experiment [7] (setting [14]), the Kd is 1.22 µM.

For the sequence YLEYEIENF, the results for the IC50 in experiment [9] (setting [16]) and in experiment [11] (setting [16]) were 17.3 µM and 42.6 µM, respectively.

Turning to IQPFLALGF, in [7] (setting [17]), the Kd worked out at 0.0165 µM.

As to AINFKIFNI, the Kd in experiment [8] (setting [14]) is 0.0221 µM.
